Molecular target: T1, heat shock factor (HSF) (UniProt P22813 P22813:1-691)
T1 sequence: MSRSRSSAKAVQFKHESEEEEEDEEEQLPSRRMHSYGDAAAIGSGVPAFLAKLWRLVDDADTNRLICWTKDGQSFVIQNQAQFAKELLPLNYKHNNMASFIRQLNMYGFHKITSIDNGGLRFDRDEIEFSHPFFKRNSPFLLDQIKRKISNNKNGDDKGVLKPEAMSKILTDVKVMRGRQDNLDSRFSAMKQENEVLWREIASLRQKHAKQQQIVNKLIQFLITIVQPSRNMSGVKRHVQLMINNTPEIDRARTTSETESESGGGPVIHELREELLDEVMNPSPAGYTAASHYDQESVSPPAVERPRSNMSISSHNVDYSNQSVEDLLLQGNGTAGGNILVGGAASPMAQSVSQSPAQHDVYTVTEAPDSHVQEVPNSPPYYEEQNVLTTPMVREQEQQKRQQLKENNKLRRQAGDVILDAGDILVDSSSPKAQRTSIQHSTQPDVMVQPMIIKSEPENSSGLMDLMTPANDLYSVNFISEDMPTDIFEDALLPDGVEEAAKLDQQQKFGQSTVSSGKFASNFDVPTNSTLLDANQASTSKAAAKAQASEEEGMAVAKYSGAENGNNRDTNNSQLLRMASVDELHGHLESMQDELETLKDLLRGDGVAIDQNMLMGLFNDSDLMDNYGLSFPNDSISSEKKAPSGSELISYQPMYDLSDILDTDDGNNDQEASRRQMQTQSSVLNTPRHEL
Experiment: EMSA; estimated from EMSA data; construct not given
Conditions: tags: fusion construct from E. coli (GST, His or MBP; exact one not specified for this assay); chain copies: 3

B1: RA1-HSF (14-1) (ssRNA)
RNA: GGGAGAAUUCAACUGCCAUCUAGGCAUCGCGAUACAAAAUUAAGUUGAACGCGAGUUCUCCAUCUAGUACUACAAGCUUCUGGACUCGAU
Kd: 20 nM
